As usually defined, the Kd is the free concentration of one partner at which half of the binding sites on the other are occupied at equilibrium, for simple one-to-one binding.

This assay addresses T1, 5-Fam-[…] (vesicular stomatitis virus).
T1 construct: also called fluorescent tracer peptide; fluorescent probe
The assay is described as follows: fluorescence polarisation. To be noted: both partners purified. On the technique in general: Fluorescence polarisation rises when a labelled molecule tumbles more slowly, as on binding a larger partner.

B1: Sec24a (△1–340) (domain or fragment)
chain: LSLQPEGLRVVNLLQERNMLPSTPLKPPVPNLHEDIQKLNCNPELFRCTLTSIPQTQALLNKAKLPLGLLLHPFKDLVQLPVVTSSTIVRCRSCRTYINPFVSFLDQRRWKCNLCYRVNDVPEEFLYNPLTRVYGEPHRRPEVQNATIEFMAPSEYMLRPPQPPVYLFVFDVSHNAVETGYLNSVCQSLLDNLDLLPGNTRTKIGFITFDSTIHFYGLQESLSQPQMLIVSDIEDVFIPMPENLLVNLNESKELVQDLLKTLPQMFTKTLETQSALGPALQAAFKLMSPTGGRMSVFQTQLPTLGVGALKPREEPNHRSSAKDIHMTPSTDFYKKLALDCSGQQVAVDLFLLSGQYSDLASLGCISRYSAGSVYYYPSYHHQHNPVQVQKLQKELQRYLTRKIGFEAVMRIRCTKGLSIHTFHGNFFVRSTDLLSLPNVNPDAGYAVQMSVEESLTDTQLVSFQSALLYTSSKGERRIRVHTLCLPVVSTLNDVFLGADVQAISGLLANMAVDRSMTASLSDARDALVNAVIDSLSAYRSSVLSNQQPGLMVPFSLRLFPLFVLALLKQKSFQTGTNARLDERIFAMCQVKNQPLVYLMLTTHPSLYRVDNLSDEGALNISDRTIPQPPILQLSVEKLSRDGAFLMDAGSVLMLWVGKNCTQNFLSQVLGVQNYASIPQPMTDLPELDTPESARIIAFISWLREQRPFFPILYVIRDESPMKANFLQNMIEDRTESALSYYEFLLHIQQQVNK
notes: Sec24a, H. sapiens, lacking residues 1–340 (△1–340); Purified alone for fluorescence polarization and as the complex with Sec23a for crystallography; also called human Sec24a; source: High Five insect cells (baculovirus), purified (HisTrap HP, HiTrap Q, Superdex 200); not shown: His6, N-terminal, cleaved
B1: the Kd stood at 14.2 µM.

(Values after publication PMC5464768, “ER retention is imposed by COPII protein sorting and attenuated by 4-phenylbutyrate” (eLife, 2017).)
